In patent publication US8394929B2, “Nogo receptor-mediated blockade of axonal growth” (Yale University, priority 2000, dated 2013):

Key:
[1] = tested on: GST-Nogo-induced growth cone collapse; test: Blockade of Nogo-induced growth cone collapse in chick DRG cultures; assay type: cell-based; conditions: GST-Nogo / Nogo-66 as collapsing agent
Experimental: (§1) For all experiments involving cell culture, the following methods were employed. The culture of embryonic chick E10 and E12 dorsal root ganglion explants and dissociated neurons utilized methods described for E7 dorsal root ganglion cultures (Takahashi et al., (1998) Nature Neurosci. 1, 487-493; Takahashi et al., (1999) Cell 99, 59-69; Goshima et al., (1995) Nature 376, 509-514; Jin & Strittmatter, (1997) J. Neurosci. […]). NGF-differentiated PC12 cells were cultured as described (Strittmatter et al., (1994) J. Neurosci. 14, 2327-2338). Embryonic spinal cord explants (rat E10 or chick E5) were cultured for 7-14 days in the presence of PDGF-AA to induce differentiation of some cells into mature oligodendrocytes (Vartanian et al., (1999) Proc. Natl. Acad. Sci. USA 96, 731-735). The procedure for growth cone collapse assays is identical to that for analysis of Sema3A-induced growth cone collapse (Takahashi et al., (1998) Nature Neurosci. 1, 487-493; Takahashi et al., (1999) Cell 99, 59-69; Goshima et al., (1995) Nature 376, 509-514; Jin & Strittmatter, (1997) J. Neurosci. 17, 6256-6263). The method for analysis of total neurite outgrowth has also been described (Goshima et al., (1995) Nature 376, 509-514; Jin & Strittmatter, (1997) J. Neurosci. 17, 6256-6263; Strittmatter et al., (1994) J. Neurosci. 14, 2327-2338). In outgrowth assays, proteins and peptides were added one hour after plating to minimize any effect on the total number of adherent cells. To test the effect of substrate-bound GST or GST-Nogo, the protein solutions were dried on poly-L-lysine coated glass, washed and then coated with laminin. For E12 cultures, the neuronal identity of cells was verified by staining with anti-neurofilament antibodies (2H3, Develomental Studies Hybridoma Bank) and neurites were traced by observation of rhodamine-phalloidin staining of F-actin in processes.
In the growth cone collapse assay, the response to Nogo was measured in the presence of various potential antagonistic peptides. […] This blockade supports the hypothesis that Nogo is a primary inhibitory component of CNS myelin.
For further testing, a synthetic peptide containing amino acid residues #1055-1094 of hNgR, acetylated at the […] was used [hereinafter “Peptide 140”]. […] Antagonist of Nogo-66 inhibitory activity may act by competing for, and thereby blocking NgR binding sites. To determine the antagonistic activity of Peptide 140, the above synthetic form of the peptide was added to E12 chick DRG explant cultures approximately 10 min before application of various concentrations of GST-NogoA (residues #1055-1120), TPA or Sema3A. 30 min later, cultures were fixed and growth cone collapse was assessed following staining with rhodamine-phalloidin.

mouse NgR = molecular target: T1, mouse NgR (Mus musculus, UniProt Q99PI8); test: AP-fusion protein binding to COS-7 cells expressing mouse NgR
T1 construct: expressed in transfected cells; host or cells: COS-7
T1 sequence (Q99PI8 27-473): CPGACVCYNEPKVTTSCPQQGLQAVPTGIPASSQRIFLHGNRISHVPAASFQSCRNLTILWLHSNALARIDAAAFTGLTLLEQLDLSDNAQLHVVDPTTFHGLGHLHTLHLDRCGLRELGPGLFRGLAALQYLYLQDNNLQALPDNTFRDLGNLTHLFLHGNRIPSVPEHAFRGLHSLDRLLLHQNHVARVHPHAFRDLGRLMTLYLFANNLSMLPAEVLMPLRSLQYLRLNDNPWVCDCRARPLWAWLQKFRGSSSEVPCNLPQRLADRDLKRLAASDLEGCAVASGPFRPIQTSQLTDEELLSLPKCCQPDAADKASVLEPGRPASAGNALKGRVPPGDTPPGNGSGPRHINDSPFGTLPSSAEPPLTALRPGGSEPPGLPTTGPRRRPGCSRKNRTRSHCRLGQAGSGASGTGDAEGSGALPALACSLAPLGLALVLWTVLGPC
Experimental: To determine if AP-fused deletion mutants of Nogo-66 bind mouse NgR (“mNgR”), COS-7 cells were transfected with a plasmid encoding the mouse NgR sequence ligated into pcDNA3.1. 48 hours after transfection, cells were washed with HBH (Hanks balanced salt solution containing 20 mM sodium Hepes, pH 7.05, and 1 mg ml^−1 bovine serum albumin) and then incubated with condition medium containing one of the AP-fusion proteins described above for 2 hours at 37° C. Cells were then washed, fixed, and left in HBH at 67° C. for 14-16 h to inactivate endogenous AP. AP-fusion protein binding to NgR expressing COS-7 cells was detected with the substrates NBT and BCIP (FIG. 13b).
To determine whether mNgR or mNgR deletion mutants bound to hNogo-A (1055-1120), wtNgR or mNgR deletion mutants were transfected into COS-7 cells. Forty-eight hours after the transfection, the transfected COS-7 cells were washed with hanks balanced salt solution containing 20 mM sodium HEPES, pH 7.05, and 1 mg/ml bovine serum albumin (BSA) [hereinafter “HBH”]. Cells were then incubated for 2 hours at 23° C. with a conditioned medium enriched with purified AP-hNogo-A (1055-1120) diluted in HBH. AP-fusion protein was detected as previously described for AP-Sema3A (Takahashi et al., Nature Neurosci. 1:487-493, 1998).

[2] = tested on: GST-Nogo-66 inhibition of neurite outgrowth; test: Blockade of Nogo-induced inhibition of neurite outgrowth in chick DRG neurons; assay type: cell-based
Experimental: as §1
Peptide 140 was tested for its ability to neutralize neurite outgrowth inhibition caused by the addition of GST fused to residues #1055-1120 of hNogoA (designated Nogo-66 in FIG. 16e). Plastic chamber slides were coated with 100 μg ml^−1 poly-L-lysine, washed, and dried. 3 μl drops of PBS containing GST-hNogoA(residues #1055-1120) were spotted and dried. Slides were then rinsed and coated with 10 μg ml fs24^−1 laminin before addition of dissociated E12 chick DRGs. Peptide 140 was added at the time of cell plating. Cultures were grown for 5-7 h after which neurite outgrowth was assessed.
Although the role of the GPI anchor may be to regulate NgR cellular compartmentalization, another possible role for the GPI linkage is to provide a NgR cleavage site. Cleaving NgR could serve to affect hNogo-A (1055-1120) signaling by rendering a neuron insensitive to hNogo-A (1055-1120) and by releasing soluble NgR that could then act on adjacent cells to modulate hNogo-A (1055-1120) signaling. To determine if soluble mNgR modulates hNogo-A (1055-1120)-dependent inhibition, a soluble mNgR was generated by inserting a truncated cDNA encoding mNgR residues 1-348 in frame with a myc-His carboxy tag into pcDNA3.1. The resulting plasmid expressing mNgREcto was transfected into HEK293T cells, and conditioned media containing mNgREcto protein was collected. To test the effect of mNgREcto on Nogo signaling, E13 dissociated DRGs were plated in the presence of hNogo-A (1055-1120) or myelin. The inhibitors were presented in either soluble or substrate-bound forms. For neurite outgrowth assays on hNogo-A (1055-1120) or myelin substrates, Permanox chamber slides were coated with 100μ, fs24 g ml^−1 poly-L-Lysine, washed, and then 3-μl drops of phosphate-buffered saline (hereinafter “PBS”) containing 0, 10, 50, or 150 ng of GST-hNogo-A (1055-1120) or myelin were spotted and dried. GST-hNogo-A (1055-1120) and myelin were prepared as previously described (GrandPre et al., supra; Fournier et al., J. Cell Biol. 149:411-421, 2000). After three PBS washes, slides were coated with 10 μg ml^−1 laminin. […]

[3] = tested on: CNS myelin induced neurite outgrowth inhibition; test: Blockade of CNS myelin induced neurite outgrowth inhibition in chick DRG neurons; assay type: cell-based
Experimental: To determine the antagonistic activity of Peptide 140 against CNS myelin, the above synthetic peptide was added approximately 10 min before application of CNS myelin. 30 min later, cultures were fixed and growth cone collapse was assessed following staining with rhodamine-phalloidin. For neurite outgrowth assays, plastic chamber slide were coated with 100 μg ml^−1 poly-L-lysine, washed, and dried. 3 μl drops of PBS containing CNS myelin were spotted and dried. Slides were then rinsed and coated with 10 μg ml fs24^−1 laminin before addition of dissociated E12 chick DRGs. Peptide 140, or the scrambled version of Peptide 140, was added at the time of cell plating. Cultures were grown for 5-7 h after which neurite outgrowth was assessed.
Although the role of the GPI anchor may be to regulate NgR cellular compartmentalization, another possible role for the GPI linkage is to provide a NgR cleavage site. Cleaving NgR could serve to affect hNogo-A (1055-1120) signaling by rendering a neuron insensitive to hNogo-A (1055-1120) and by releasing soluble NgR that could then act on adjacent cells to modulate hNogo-A (1055-1120) signaling. To determine if soluble mNgR modulates hNogo-A (1055-1120)-dependent inhibition, a soluble mNgR was generated by inserting a truncated cDNA encoding mNgR residues 1-348 in frame with a myc-His carboxy tag into pcDNA3.1. The resulting plasmid expressing mNgREcto was transfected into HEK293T cells, and conditioned media containing mNgREcto protein was collected. To test the effect of mNgREcto on Nogo signaling, E13 dissociated DRGs were plated in the presence of hNogo-A (1055-1120) or myelin. The inhibitors were presented in either soluble or substrate-bound forms. For neurite outgrowth assays on hNogo-A (1055-1120) or myelin substrates, Permanox chamber slides were coated with 100μ, fs24 g ml^−1 poly-L-Lysine, washed, and then 3-μl drops of phosphate-buffered saline (hereinafter “PBS”) containing 0, 10, 50, or 150 ng of GST-hNogo-A (1055-1120) or myelin were spotted and dried. GST-hNogo-A (1055-1120) and myelin were prepared as previously described (GrandPre et al., supra; Fournier et al., J. Cell Biol. 149:411-421, 2000). After three PBS washes, slides were coated with 10 μg ml^−1 laminin. Laminin was then aspirated and dissociated E13 chick DRG neurons were added. After 6-8 hr of outgrowth, cultures were fixed and neurite outgrowth lengths were assessed. For blockade experiments with NgREcto, spots were incubated with HEK293T cell conditioned media or NgREcto-transfected-HEK293T cell conditioned media following for 1 hr following the laminin coating step and before the addition of dissociated neurons. […] Thus, soluble fragments of NgR might serve physiologically or pharmacologically to reduce GST-hNogo-A (1055-1120) inhibition of axonal regeneration.

| Substance | blockade of Nogo-induced growth cone collapse (in words) [1] | binding to NgR expressing COS-7 cells (in words) (mouse NgR) | also measured |
| --- | --- | --- | --- |
| 1-25: 25 amino acid peptide, residues 1-25 of the extracellular domain of Nogo (FRIYKGVIQAIQKSDEGHPFRAYLE) [Peptide 1-25] | blocking activity at μM concentrations |  |  |
| 1-30: peptides having residues 1-30 of hNogoA (#1055-1120) (RIYKGVIQAIQKSDEGHPFRAYLESEVAIS; UniProt Q9NQC3 1055-1084, looked up, fragment) [Peptide 1-30] |  | almost no binding |  |
| 1-31: peptides having residues 1-31 of hNogoA (#1055-1120) (RIYKGVIQAIQKSDEGHPFRAYLESEVAISE; UniProt Q9NQC3 1055-1085, looked up, fragment) [Peptide 1-31] |  | almost no binding |  |
| 1-33: peptides having residues 1-33 of hNogoA (#1055-1120) (RIYKGVIQAIQKSDEGHPFRAYLESEVAISEEL; UniProt Q9NQC3 1055-1087, looked up, fragment) [Peptide 1-33] |  |  | binding to mNgR, less compared to the strong binders (mouse NgR; data not shown): approximately 50% |
| 1-34: peptides having residues 1-34 of hNogoA (#1055-1120) (RIYKGVIQAIQKSDEGHPFRAYLESEVAISEELV; UniProt Q9NQC3 1055-1088, looked up, fragment) [Peptide 1-34] |  | bind strongly and almost equivalently |  |
| 2-40: peptides having residues 2-40 of the hNogoA (#1055-1120) (IYKGVIQAIQKSDEGHPFRAYLESEVAISEELVQKYSNS; UniProt Q9NQC3 1056-1094, looked up, fragment) [Peptide 2-40] |  | bound mNgR well |  |
| 10-40: peptides having residues 10-40 of hNogoA (#1055-1120) (IQKSDEGHPFRAYLESEVAISEELVQKYSNS) [Peptide 10-40] |  | no binding |  |
| 11-35: 25 amino acid peptide, residues 11-35 of the extracellular domain of Nogo (IQKSDEGHPFRAYLESEVAISEELV) [Peptide 11-35] | blocking activity at μM concentrations |  |  |
| 21-45: 25 amino acid peptide, residues 21-45 of the extracellular domain of Nogo (RAYLESEVAISEELVQKYSNSALGH) [Peptide 21-45] | blocking activity at μM concentrations |  |  |
| acetyl-SYVKEYAPIFAGKSRGEIKYQSIEIHEAQVRSDELVQSLN-amide (Ac-SYVKEYAPIFAGKSRGEIKYQSIEIHEAQVRSDELVQSLN-NH2) [scrambled version of Peptide 140, reference compound] |  |  | blockade of Nogo-induced neurite outgrowth inhibition (in words) [2]: does not result in blockade of outgrowth inhibition; blockade of CNS myelin induced neurite outgrowth inhibition (in words) [3]: ineffective |
